Assay results published in patent US20240000957A1 (published 2024).
*1 amine or outer side, *2 acyl side, *3 side chain or, on linkers, in order; H or OH if unused. Bridges are numbered along the chain shown (N, C = ends). Where no end group is shown, it is not given here. [ ]: non-standard residue; d: D form. TATA = O=C(CC[*:1])N1CN(C(=O)CC[*:2])CN(C(=O)CC[*:3])C1; 2Nal = N[C@@H](Cc1ccc2ccccc2c1)C(=O)O; Hyp = O=C(O)[C@@H]1C[C@@H](O)CN1; hArg = N=C(N)NCCCC[C@H](N)C(=O)O; βAla = NCCC(=O)O; Sar = CNCC(=O)O

B1: Compound 65 (peptide)
peptide: ARDCPLVNPLCLHPGWTCA
modifications: linker 4-11-18 via TATA; not fully specified (C-terminus)
B2: Compound 60 (peptide)
peptide: ACPLVNPLCMIGNWTCA
modifications: linker 2-9-16 via TATA; not fully specified (C-terminus)
B3: BCY6019 (peptide)
peptide: CPLVNPLCLHPGWTCLHG
modifications: N-terminal Ac; C-terminal -Sar6-(D-K); TATA scaffold on the 3 Cys
notes: also called Compound 77
B4: Compound 75 (peptide)
peptide: ACPLVNPLCLHPGWTCLHG
modifications: N-terminal (β-Ala)-Sar10; TATA scaffold on the 3 Cys
B5: BCY6035 (peptide)
peptide: Ac-CPLVNPLCLHPGWTCLHG
modifications: linker 1-8-15 via TATA; not fully specified (C-terminus); also: DM1-SS- conjugated, site not given here
notes: Bicycle drug conjugate (BDC)
B6: Compound 90 (peptide)
peptide: ACPLVNPLCLHPGWSCXGQ
modifications: not fully specified; N-terminal (β-Ala)-Sar10; HArg; TATA scaffold on the 3 Cys
B7: BCY6036 (peptide)
peptide: Ac-CPLVNPLCLHPGWTCLHG
modifications: linker 1-8-15 via TATA; not fully specified (C-terminus); also: DM1-SS-(Me)- conjugated, site not given here
notes: Bicycle drug conjugate (BDC)
B8: BCY6034 (peptide)
peptide: AXDCPLVNPLCLHPGWTC
modifications: not fully specified; N-terminal (β-Ala)-Sar10 spacer precedes SEQ ID NO: 11; HArg (homoarginine) at residue 2 of SEQ ID NO: 11; three Cys cyclised on the TATA scaffold; TrpCit-MMAE (MMAE-PABC-Cit-Trp-glutarate) on the N-terminal amine
B9: BCY6032 (peptide)
peptide: AXDCPLVNPLCLHPGWTC
modifications: not fully specified; N-terminal (β-Ala)-Sar10 spacer precedes SEQ ID NO: 11; HArg (homoarginine) at residue 2 of SEQ ID NO: 11; three Cys cyclised on the TATA scaffold; DM1-SS-(Me)- (DM1-SPP) on the N-terminal amine
B10: Compound 92 (peptide)
peptide: CPLVNPLCLHPGWSCXGQ
modifications: not fully specified; N-terminal Ac; HArg; C-terminal -Sar6-(D-K); TATA scaffold on the 3 Cys
B11: Compound 59 (peptide)
peptide: ACPLVNPLCLMPGWGCA
modifications: linker 2-9-16 via TATA; not fully specified (C-terminus)
B12: BCY6055 (peptide)
peptide: AXDCPLVNPLCLHPGWTC
modifications: not fully specified; as BCY6014 (N-terminal (β-Ala)-Sar10; HArg; TATA scaffold on the 3 Cys) + DM1-SS-(Me2)-
notes: Bicycle drug conjugate (BDC)
B13: BCY6136 (peptide)
peptide: [βAla][Sar][Sar][Sar][Sar][Sar][Sar][Sar][Sar][Sar][Sar]A[hArg]DC[Hyp]LVNPLCLHP[dD]W[hArg]C
modifications: linker 15-22-29 via TATA; not fully specified (N-terminus, C-terminus); also: ValCit-MMAE conjugate, site not given here
notes: Bicycle drug conjugate (BDC); also called BT5528
B14: Compound 76 (peptide)
peptide: ACPLVNPLCLHPGWTCLXG
modifications: not fully specified; N-terminal (β-Ala)-Sar10; D-His; TATA scaffold on the 3 Cys
B15: BCY6174 (peptide)
peptide: [βAla][Sar][Sar][Sar][Sar][Sar][Sar][Sar][Sar][Sar][Sar]A[hArg]DC[Hyp]LVNPLCLHP[dD]W[hArg]C
modifications: linker 15-22-29 via TATA; not fully specified (N-terminus, C-terminus); also: ValLys-MMAE conjugate, site not given here
notes: Bicycle drug conjugate (BDC)
B16: BCY6014 (peptide)
peptide: AXDCPLVNPLCLHPGWTC
modifications: N-terminal (β-Ala)-Sar10; HArg; TATA scaffold on the 3 Cys
notes: also called Compound 67
B17: BCY6038 (peptide)
peptide: Ac-CPLVNPLCLHPGWTCLHG
modifications: linker 1-8-15 via TATA; not fully specified (C-terminus); also: TrpCit-MMAE conjugated, site not given here
notes: Bicycle drug conjugate (BDC)
B18: BCY6031 (peptide)
peptide: AXDCPLVNPLCLHPGWTC
modifications: not fully specified; N-terminal (β-Ala)-Sar10 spacer precedes SEQ ID NO: 11; HArg (homoarginine) at residue 2 of SEQ ID NO: 11; three Cys cyclised on the TATA scaffold; DM1-SS- (DM1-SPDB) on the N-terminal amine
B19: BCY6063 (peptide)
peptide: AXDCPLVNPLCLHPGWTC
modifications: not fully specified; as BCY6014 (N-terminal (β-Ala)-Sar10; HArg; TATA scaffold on the 3 Cys) + Non-cleavable (MMAE)
notes: Bicycle drug conjugate (BDC)
B20: BCY6064 (peptide)
peptide: AXDCPLVNPLCLHPGWTC
modifications: not fully specified; as BCY6014 (N-terminal (β-Ala)-Sar10; HArg; TATA scaffold on the 3 Cys) + Non-cleavable (DM1)
notes: Bicycle drug conjugate (BDC)
B21: BCY6062 (peptide)
peptide: AXDCPLVNPLCLHPGWTC
modifications: not fully specified; as BCY6014 (N-terminal (β-Ala)-Sar10; HArg; TATA scaffold on the 3 Cys) + D-TrpCit-MMAE
notes: Bicycle drug conjugate (BDC)
B22: Compound 69 (peptide)
peptide: AXDCPLVNPLCLHPGWTCA
modifications: not fully specified; N-terminal Ac; HArg; C-terminal -Sar6-(D-K); TATA scaffold on the 3 Cys
B23: BCY6135 (peptide)
peptide: [βAla][Sar][Sar][Sar][Sar][Sar][Sar][Sar][Sar][Sar][Sar]A[hArg]DC[Hyp]LVNPLCLHP[dD]W[hArg]C
modifications: linker 15-22-29 via TATA; not fully specified (N-terminus, C-terminus); numbers in words are those of the source; also: DM1-SS- conjugate, site not given here
notes: Bicycle drug conjugate (BDC)
B24: BCY6042 (peptide)
peptide: CPLVNPLCLHPGWSCRGQ
modifications: N-terminal Ac; C-terminal -Sar6-(D-K); TATA scaffold on the 3 Cys
notes: also called Compound 91
B25: Compound 61 (peptide)
peptide: ACPLVNPLCLMTGWSCA
modifications: linker 2-9-16 via TATA; not fully specified (C-terminus)
B26: BCY6037 (peptide)
peptide: Ac-CPLVNPLCLHPGWTCLHG
modifications: linker 1-8-15 via TATA; not fully specified (C-terminus); also: ValCit-MMAE conjugated, site not given here
notes: Bicycle drug conjugate (BDC)
B27: Compound 63 (peptide)
peptide: ACPLVNPLCLYGSWKCA
modifications: linker 2-9-16 via TATA; not fully specified (C-terminus)
B28: Compound 79 (peptide)
peptide: ACPLVNPLCLHPG[2Nal]TCLHG
modifications: linker 2-9-16 via TATA; not fully specified (C-terminus); printed as ACPLVNPLCLHPG(2Nal)TCLHG
B29: Compound 62 (peptide)
peptide: ACPLVNPLCMMGGWKCA
modifications: linker 2-9-16 via TATA; not fully specified (C-terminus)
B30: Compound 68 (peptide)
peptide: Ac-ARDCPLVNPLCLHPGWTCA
modifications: linker 4-11-18 via TATA; not fully specified (C-terminus); printed as Ac-ARDCPLVNPLCLHPGWTCA-Sar6-(D-K)
B31: Compound 89 (peptide)
peptide: [βAla][Sar][Sar][Sar][Sar][Sar][Sar][Sar][Sar][Sar][Sar]ACPLVNPLCLHPGWSCRGQ
modifications: linker 13-20-27 via TATA; not fully specified (C-terminus); printed as (β-Ala)-Sar10-ACPLVNPLCLHPGWSCRGQ
B32: Compound 74 (peptide)
peptide: Ac-CPLVNPLCLHPGWTCLHG
modifications: linker 1-8-15 via TATA; not fully specified (C-terminus); printed as Ac-CPLVNPLCLHPGWTCLHG
B33: BCY6077 (peptide)
peptide: AXDCPLVNPLCLHPGWTC
modifications: not fully specified; as BCY6014 (N-terminal (β-Ala)-Sar10; HArg; TATA scaffold on the 3 Cys) + DM1-SS-(Me)-SO3H-
notes: Bicycle drug conjugate (BDC)
B34: BCY6026 (peptide)
peptide: ACPLVNPLCLHPGWSCRGQ
modifications: linker 2-9-16 via TATA
notes: Bicyclic peptide on a TATA scaffold, no toxin; Made on Rink amide resin; also called Compound 87; Bicycle Compound Number 87
B35: Compound 78 (peptide)
peptide: CPLVNPLCLHPGWTCLXG
modifications: not fully specified; N-terminal Ac; D-His; C-terminal -Sar6-(D-K); TATA scaffold on the 3 Cys
B36: BCY6034 (peptide)
peptide: AXDCPLVNPLCLHPGWTC
modifications: not fully specified; as BCY6014 (N-terminal (β-Ala)-Sar10; HArg; TATA scaffold on the 3 Cys) + TrpCit-MMAE
notes: Bicycle drug conjugate (BDC)
B37: Compound 58 (peptide)
peptide: ACPLVNPLCLLDGWTCA
modifications: linker 2-9-16 via TATA; not fully specified (C-terminus)
B38: Compound 70 (peptide)
peptide: RPACPLVNPLCLHPGWTCA
modifications: linker 4-11-18 via TATA; not fully specified (C-terminus)
B39: Compound 71 (peptide)
peptide: RPPCPLVNPLCLHPGWTCA
modifications: linker 4-11-18 via TATA; not fully specified (C-terminus)
B40: BCY6026 (peptide)
peptide: ACPLVNPLCLHPGWSCRGQ
modifications: linker 2-9-16 via TATA
notes: also called Compound 87

Columns and labels:
[1] = target: T1, Human EphA2 (Ecto), C-terminal polyHis (Human, UniProt P29317 24-537); assay: FP competition vs Reference Compound C
T1 construct: extracellular domain; R&D systems 3035-A2 or in-house
T1 sequence (P29317 24-537): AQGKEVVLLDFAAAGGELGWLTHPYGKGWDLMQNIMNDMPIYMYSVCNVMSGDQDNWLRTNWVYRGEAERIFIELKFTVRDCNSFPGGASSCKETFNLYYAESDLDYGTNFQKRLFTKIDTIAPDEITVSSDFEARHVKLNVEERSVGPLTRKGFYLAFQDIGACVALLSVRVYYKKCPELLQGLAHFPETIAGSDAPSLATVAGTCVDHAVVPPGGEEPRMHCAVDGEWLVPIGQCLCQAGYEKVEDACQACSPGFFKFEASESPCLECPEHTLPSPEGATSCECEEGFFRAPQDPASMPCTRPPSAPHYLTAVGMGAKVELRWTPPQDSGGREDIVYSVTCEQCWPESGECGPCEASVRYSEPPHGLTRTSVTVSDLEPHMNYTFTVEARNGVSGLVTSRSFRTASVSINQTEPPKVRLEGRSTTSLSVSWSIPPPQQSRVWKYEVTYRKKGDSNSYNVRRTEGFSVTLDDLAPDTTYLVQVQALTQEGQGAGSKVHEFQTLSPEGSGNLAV

[2] = target: T2, Mouse EphA2 (Ecto) (Mouse, UniProt Q03145 26-538); assay: FP competition vs Reference Compound C
T2 construct: extracellular domain; Fluorescence polarisation assays; not shown: Fc fusion (R&D Systems 639-A2) or C-terminal polyHis (Sino Biological 50586-M08H)
T2 sequence (Q03145 26-538): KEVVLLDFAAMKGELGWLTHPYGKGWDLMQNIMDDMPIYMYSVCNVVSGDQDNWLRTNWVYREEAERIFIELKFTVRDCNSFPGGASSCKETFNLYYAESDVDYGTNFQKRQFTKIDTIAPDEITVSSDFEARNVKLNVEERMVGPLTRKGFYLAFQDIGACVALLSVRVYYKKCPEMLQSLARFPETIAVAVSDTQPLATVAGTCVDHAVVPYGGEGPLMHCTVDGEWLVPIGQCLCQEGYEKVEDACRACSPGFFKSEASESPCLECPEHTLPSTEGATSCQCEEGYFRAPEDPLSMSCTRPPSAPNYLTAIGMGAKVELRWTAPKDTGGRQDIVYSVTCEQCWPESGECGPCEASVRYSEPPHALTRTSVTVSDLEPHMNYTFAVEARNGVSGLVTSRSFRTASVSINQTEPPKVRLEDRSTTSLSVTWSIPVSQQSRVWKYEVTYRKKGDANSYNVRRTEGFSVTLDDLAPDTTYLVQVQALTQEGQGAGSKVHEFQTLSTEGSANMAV

[3] = target: T1, Human EphA2 (Ecto), C-terminal polyHis; assay: FP competition vs Reference Compound C (Study 2)
[4] = target: T3, Human EphA2 (Human, UniProt P29317 24-537, limits assumed, biotinylated, 0.95 mol biotin/monomer); assay: SPR, biotinylated EphA2 on streptavidin chip
T3 construct: also called Eph receptor tyrosine kinase A2
T3 sequence (P29317 24-537 limits assumed): as the sequence (P29317 24-537) above

[5] = target: T4, Rat EphA2 (ligand binding), C-terminal polyHis (Rat); assay: FP competition vs Reference Compound C (Study 2)
T4 construct: In-house

[6] = target: T2, Mouse EphA2 (Ecto); assay: FP competition vs Reference Compound C (Study 2)

Binder	Ki [1] [nM]	Ki [2] [nM]	other results
B1	6.05	39.1	–
B2	96.2	–	–
B3	5.41	48.2	–
B4	2.48	–	–
B5	–	–	Ki [3]: 15.2 nM
B6	5.41	47	–
B7	–	–	Ki [3]: 18.6 nM
B8	–	–	Kd [4]: 1.64 nM; t1/2 [4]: 3.2 min
B9	–	–	Kd [4]: 2.1 nM; t1/2 [4]: 2.2 min
B10	10.6	75.3	–
B11	114	–	–
B12	–	–	Ki [3]: 15.8 nM
B13	–	–	Ki [5]: 3.2 nM
B14	10	75.2	–
B15	–	–	Ki [5]: 3 nM
B16	8.51	61.7	–
B17	–	–	Ki [3]: 2.8 nM
B18	–	–	Kd [4]: 1.99 nM; t1/2 [4]: 2.3 min
B19	–	–	Ki [3]: 7.8 nM; Ki [6]: 66.8 nM
B20	–	–	Ki [3]: 12.5 nM; Ki [6]: 40.7 nM

Binder	Ki [1] [nM]	Ki [2] [nM]	other results
B21	–	–	Ki [3]: 12.9 nM; Ki [6]: 20.3 nM
B22	17.5	164	–
B23	–	–	Ki [5]: 2.9 nM
B24	5.98	49.9	–
B25	242	–	–
B26	–	–	Ki [3]: 7.3 nM
B27	59	–	–
B28	162	–	–
B29	67.1	–	–
B30	19.3	166	–
B31	2.86	29.6	–
B32	1.76	–	–
B33	–	–	Ki [3]: 6.5 nM; Ki [6]: 25.3 nM
B34	–	–	t1/2 [4]: 11.3 min
B35	15.6	115	–
B36	–	–	Ki [3]: 5.9 nM; Ki [6]: 35.9 nM
B37	38.4	–	–
B38	10.1	–	–
B39	11.1	–	–
B40	2.57	18.6	–
